# Patent US6436691B1, “Chemical compounds” (Zeneca Limited, priority 1995, dated 2002)
# Where a chain is given by its changes, count along the chain named. Names may count otherwise.
# B1: [G251T,D253R]HCPB: HCPB mutant with G251T and D253R, (His)6-c-myc tag (protein, UniProt P15086 111-417, looked up, variant G251T D253R)
# Carboxypeptidase B: ATGHSYEKYNKWETIEAWTQQVATENPALISRSVIGTTFEGRAIYLLKVGKAGQNKPAIFMDCGFHAREWISPAFCQWFVREAVRTYGREIQVTELLDKLDFYVLPVLNIDGYIYTWTKSRFWRKTRSTHTGSSCIGTDPNRNFDAGWCEIGASRNPCDETYCGPAAESEKETKALADFIRNKLSSIKAYLTIHSYSQMMIYPYSYAYKLGENNAELNALAKATVKELASLHGTKYTYGPGATTIYPAAGTSRDWAYDQGIRYSFTFELRDTGRYGFLLPESQIRATCEETFLAIKYVASYVLEHLY
# modifications: (His)6-c-myc tag
# B2: [G251S, D253K]: HCPB mutant with G251S and D253K, (His)6-c-myc tag (protein, UniProt P15086 111-417, looked up, variant G251S D253K)
# Carboxypeptidase B: B1 Carboxypeptidase B with T251S, R253K
# modifications: (His)6-c-myc tag
# B3: [G251K, D253R]: HCPB mutant with G251K and D253R (protein, UniProt P15086 111-417, looked up, variant G251K D253R)
# Carboxypeptidase B: B1 Carboxypeptidase B with T251K
# B4: [I245H, D253K]: HCPB mutant with I245H and D253K (protein, UniProt P15086 111-417, looked up, variant I245H D253K)
# Carboxypeptidase B: B1 Carboxypeptidase B with I245H, T251G, R253K
# Key:
# Type in all cases: biochemical
# [1] = Conversion of Hipp-Glu by purified HCPB mutants, 30 minutes, HPLC (Example 17); conditions: 0.5 mM substrate, 30 minutes at 37° C.
# Experimental: (§1) Purified mutants of human CPB (D253K; [G251K,D253R]; [G251N,D253R]; [I201S,D253K]; [G251N,D253K]; [Q54R,D145A,D253K]; [G251T,D253K]; [G251S,D253K]; [A248N,G251N,D253K]; [A248S,G251N,D253K] and [S205N,G251N,D253K]—described in Examples 3, 12, 13, 16, 28, 30, 31, 32 and 33) were assayed for their ability to convert hippuryl-L-glutamic acid (Hipp-Glu—Reference Example 1), hippuryl-L-aspartic acid (Hipp-Asp—Reference Example 2) and hippuryl-L-arginine (Sigma Chemical Company—cat no. H6625) to hippuric acid using a HPLC based assay similar to that described in Example 6.
# (§2) Samples were incubated for 30 minutes at 37° C. The reactions were terminated by the addition of 500 μl of 40% methanol, 60% distilled water, 0.2% trifluoro acetic acid and the amount of hippuric acid generated was quantitated by HPLC as described in Example 6 but using a mobile phase of 20% methanol, 80% 50 mM phosphate buffer, pH 6.5. Hippuric acid was detected at 230 nm. The results are shown in Table 5 and are expressed as the percentage conversion of substrate into product in 30 minutes at 37° C.
# [2] = Km and kcat of HCPB mutants with Hipp-Glu (Example 7); conditions: Hipp-Glu 0.25-8.0 mM; pH 7.5; 5 h at 37° C.
# Experimental: (§3) Hipp-Glu and Hipp-Asp were diluted in range 0.25-8.0 mM and 0.25-5.0 mM respectively in 0.025 M Tris-HCL buffer, pH 7.5. Where necessary substrate samples were adjusted to pH 7.5 with 1M NaOH.
# (§4) Samples were incubated for 5 h at 37° C. Reactions were terminated by the addition of 500 μl methanol/distilled water (80/20) containing 0.2% TFA. The amount of hippuric acid produced was quantified by HPLC as described in Example 6.
# (§5) Km and Vmax values were calculated using the ENZFITTER software programme (Biosoft, Perkin Elmer).
# [3] = Conversion of Hipp-Glu by periplasmic shockate of HCPB mutants, 24 h (Example 18); conditions: 24 h at 37° C.
# Experimental: (§6) The activity of [G251T,D253K]HCPB was measured using the assay conditions described in Example 17 but using either 50 μl of a neat or 1 in 10 or 1 in 100 dilution of [G251T,D253K]HCPB crude E.coli periplasmic shockate (shockate) sample in place of purified enzyme. Samples were incubated for 24 h at 37° C. […] For other HCPB mutants, the reaction volume was 250 μl and contained 125 μl of neat shockate or 1 in 50 dilution of shockate. The shockate samples were prepared as described in Example 16. The amount of Hippuric acid produced in 24 h was quantified by HPLC as described in Example 17 and the results are shown in Table 6 and are expressed as the percentage conversion of substrate into product in 24 h at 37° C.
# [4] = Conversion of Hipp-Arg by purified HCPB mutants, 30 minutes, HPLC (Example 17); conditions: 0.5 mM substrate, 30 minutes at 37° C.
# Experimental: as §1, §2
# [5] = Km and kcat of HCPB mutants with Hipp-Asp (Example 7); conditions: Hipp-Asp 0.25-5.0 mM; pH 7.5; 5 h at 37° C.
# Experimental: as §3, §4, §5
# [6] = Conversion of Hipp-Asp by periplasmic shockate of HCPB mutants, 24 h (Example 18); conditions: shockate concentration in reaction mixture 50 %; 24 h at 37° C.
# Experimental: as §6
# [7] = Conversion of Hipp-Asp by purified HCPB mutants, 30 minutes, HPLC (Example 17); conditions: 0.5 mM substrate, 30 minutes at 37° C.
# Experimental: as §1, §2
# [8] = Activity against Hipp-Glu in crude E. coli periplasmic shockate relative to D253K or D253R HCPB (Example 16)
# Source text: (§7) A number of other mutant HCPBs have been constructed in a similar manner to the methods described in Reference Examples 7 and 8, and Examples 12, 13, 14 and 15. In each case oligos were constructed to introduce specific changes in the gene sequence by methods similar to those described above. In some cases additional mutations were identified upon complete sequencing of the mutated gene, and these were presumably introduced during the PCR reactions. Mutants with enzyme activity against substrate analogues (see Example 18 below) have been identified, and examples of these are given in Table 4 below. […] This material is subsequently referred to as periplasmic shockate or shockate and is prepared by the following procedure.
# (§8) 1. A single colony was used to inoculate 75 ml of L-broth nutrient media containing 10 μg/ml tetracycline and arabinose to a final concentration of 0.01% (w/v). Incubation was performed at 20° C. with shaking (250 rpm) for about 60 hours.
# (§9) 2. The cells were then harvested by centrifugation at 4° C.
# (§10) 3. The cell pellet was re-suspended in 300 micro-liters of 20% sucrose (w/v) containing 1 mM EDTA in 200 mM Tris-HCl at pH7.5, and incubated at room-temperature for 15 minutes.
# (§11) 4. Periplasmic shockate was generated by the addition of 450 micro-liters of distilled water, and a further incubation at room-temperature for 15 minutes.
# (§12) 5. Cellular remains were removed by centrifugation, and the supernatant assayed for enzyme activity as soon as possible after preparation and kept at 4° C. prior to assay.
# The activity of [G251T,D253K]HCPB was measured using the assay conditions described in Example 17 but using either 50 μl of a neat or 1 in 10 or 1 in 100 dilution of [G251T,D253K]HCPB crude E.coli periplasmic shockate (shockate) sample in place of purified enzyme. Samples were incubated for 24 h at 37° C. […] The amount of Hippuric acid produced in 24 h was quantified by HPLC as described in Example 17 and the results are shown in Table 6 and are expressed as the percentage conversion of substrate into product in 24 h at 37° C.
# [9] = Conversion of prodrug of Example 24 to drug of Example 25 by HCPB mutants, HPLC (Example 20); conditions: enzyme 15 μg/ml; 0.5 mM prodrug of Example 24; 5 minutes at 37° C.
# Experimental: The reaction was stopped by adding MeCN (500 μl) plus 0.2% Trifluoroacetic acid. The amount of drug produced was then quantified by HPLC.
# HPLC separation was carried out as described in Example 6 except that a mobile phase of 70% MeCN, 30% distilled water and 0.1% trifluoroacetic acid was used to achieve separation of prodrug (retention time 3.8 minutes) and drug (retention time 4.9 minutes) and the compounds were detected at 260 nm. The amount of drug produced was quantified from calibration curves generated with known amounts of drug.
# The amount of [Q54R,D145A,D253K]HCPB and [G251T,D253K]HCPB mutants was reduced to 0.75 μg in the reaction mixture.
# [10] = Activity against Hipp-Asp in crude E. coli periplasmic shockate relative to D253K or D253R HCPB (Example 16)
# Source text: as §7, §8, §9, §10, §11, §12, §6
# [11] = shockate concentration in reaction mixture 50 %
molecule,measurement,setting,value
B1,Hipp-Glu (% conversion),[1]; enzyme 1 μg/ml,16.2%
same,Hipp-Glu (% conversion),[1]; enzyme 25 μg/ml,96%
same,Km,[2],1600 µM
same,"kcat, Hipp-Glu",[2],7.8 s⁻¹
same,Hipp-Glu (% conversion),[3]; [11],65.4%
same,Hipp-Arg (% conversion),[4]; enzyme 1 μg/ml,0%
same,Hipp-Arg (% conversion),[4]; enzyme 25 μg/ml,0%
same,Km,[5],1700 µM
same,"kcat, Hipp-Asp",[5],0.7 s⁻¹
same,Hipp-Asp (% conversion),[6],14.6%
same,Hipp-Asp (% conversion),[7]; enzyme 1 μg/ml,1.2%
same,Hipp-Asp (% conversion),[7]; enzyme 25 μg/ml,29%
B2,Hipp-Glu (% conversion),[1]; enzyme 0.25 μg/ml,14.5%
same,Hipp-Glu (% conversion),[1]; enzyme 25 μg/ml,100%
same,Hipp-Glu (% conversion),[3]; shockate concentration in reaction mixture 1 %,5%
same,Hipp-Glu (% conversion),[3]; [11],93.8%
same,Hipp-Arg (% conversion),[4]; enzyme 0.25 μg/ml,0%
same,Hipp-Arg (% conversion),[4]; enzyme 25 μg/ml,0.8%
same,Hipp-Asp (% conversion),[6],1.6%
same,Hipp-Asp (% conversion),[7]; enzyme 0.25 μg/ml,0%
same,Hipp-Asp (% conversion),[7]; enzyme 25 μg/ml,2.8%
same,"Hipp-Glu, activity relative to D253K HCPB or D253R HCPB",[8],e (>10 times the activity of D253K HCPB)
B3,Prodrug Hydrolysis (%),[9],16.2%
same,Hipp-Glu (% conversion),[1]; enzyme 2.5 μg/ml,3.2%
same,Hipp-Glu (% conversion),[1]; enzyme 25 μg/ml,5.5%
same,"Hipp-Asp, activity relative to D253K HCPB or D253R HCPB",[10],NAD (No activity detected)
same,Hipp-Arg (% conversion),[4]; enzyme 2.5 μg/ml,0%
same,Hipp-Arg (% conversion),[4]; enzyme 25 μg/ml,0%
same,Hipp-Asp (% conversion),[7]; enzyme 2.5 μg/ml,0.2%
same,Hipp-Asp (% conversion),[7]; enzyme 25 μg/ml,0.2%
B4,"Hipp-Asp, activity relative to D253K HCPB or D253R HCPB",[10],NAD (No activity detected)
